Earlier results in US20240382567A1, “Long-acting PTH compound treatments” (Ascendis Pharma Bone Diseases A/S, priority 2021, published 2024).
Read-outs that look alike come from different tables or passages of the source.

System: patients with hypoparathyroidism

B1: PTH(1-84): daily injection of PTH(1-84), approved as adjunct to calcium and vitamin D to control hypocalcemia in hypoparathyroidism (protein, UniProt P01270 32-115, looked up)
Parathyroid hormone: SVSEIQLMHNLGKHLNSMERVEWLRKKLQDVHNFVALGAPLAPRDAGSQRPRKKEDNVLVESHEKSLGEADKADVNVLTKAKSQ
modifications: Parathyroid hormone
notes: daily injection of PTH(1-84), approved as adjunct to calcium and vitamin D to control hypocalcemia in hypoparathyroidism
Total hip BMD increase from baseline (3 years, P=0.04): 2.10% | Lumbar spine BMD increase (at 24 months, P=0.01): 3.2% | Distal one third radius BMD mean loss (study conclusion (year 6), P=0.0001 vs baseline): 4.4% | Femoral neck BMD increase (year 3, P=0.04): 2.6% | Distal one third radius T-score (year 6): −0.28 | Femoral neck BMD versus baseline (year 6): not different from baseline | Lumbar spine BMD mean gain from baseline (year 6, P=0.004): 3.8% | Total hip BMD increase from baseline (year 6, P=0.02): 2.4%
